{"source": "paper PMC12510010", "about": "(The Journal of Biological Chemistry, 2025)", "molecules": {"B1": {"name": "GST-NHERF4 (natural protein, human, UniProt Q86UT5 1-571, looked up)", "chain": "MVTPSPPGNHSLSLEAPRLHTASDLLGNHSLGLPLITALVGSRDRRGRVFSPVPVPLPTNPTTQHPTRQKLPSTLSGHRVCQAHGEPVLGLCPLLPLFCCPPHPPDPWSLERPRFCLLSKEEGKSFGFHLQQELGRAGHVVCRVDPGTSAQRQGLQEGDRILAVNNDVVEHEDYAVVVRRIRASSPRVLLTVLARHAHDVARAQLGEDAHLCPTLGPGVRPRLCHIVKDEGGFGFSVTHGNQGPFWLVLSTGGAAERAGVPPGARLLEVNGVSVEKFTHNQLTRKLWQSGQQVTLLVAGPEVEEQCRQLGLPLAAPLAEGWALPTKPRCLHLEKGPQGFGFLLREEKGLDGRPGQFLWEVDPGLPAKKAGMQAGDRLVAVAGESVEGLGHEETVSRIQGQGSCVSLTVVDPEADRFFSMVRLSPLLFLENTEAPASPRGSSSASLVETEDPSLEDTSVPSVPLGSRQCFLYPGPGGSYGFRLSCVASGPRLFISQVTPGGSAARAGLQVGDVILEVNGYPVGGQNDLERLQQLPEAEPPLCLKLAARSLRGLEAWIPPGAAEDWALASDLL"}, "B2": {"name": "NHERF2: PDZ adaptor protein; purified as GST-fusion protein (protein)", "chain": "MAAPEPLRPRLCRLVRGEQGYGFHLHGEKGRRGQFIRRVEPGSPAEAAALRAGDRLVEVNGVNVEGETHHQVVQRIKAVEGQTRLLVVDQETDEELRRRQLTCTEEMAQRGLPPAHDPWEPKPDWAHTGSHSSEAGKKDVSGPLRELRPRLCHLRKGPQGYGFNLHSDKSRPGQYIRSVDPGSPAARSGLRAQDRLIEVNGQNVEGLRHAEVVASIKAREDEARLLVVDPETDEHFKRLRVTPTEEHVEGPLPSPVTNGTSPAQLNGGSACSSRSDLPGSDKDTEDGSAWKQDPFQESGLHLSPTAAEAKEKARAMRVNKRAPQMDWNRKREIFSNF", "modifications": "left off: GST, end not stated, kept"}, "B3": {"name": "NHERF1: PDZ adaptor protein; purified as GST-fusion protein (protein)", "chain": "MSADAAAGAPLPRLCCLEKGPNGYGFHLHGEKGKLGQYIRLVEPGSPAEKAGLLAGDRLVEVNGENVEKETHQQVVSRIRAALNAVRLLVVDPETDEQLQKLGVQVREELLRAQEAPGQAEPPAAAEVQGAGNENEPREADKSHPEQRELRPRLCTMKKGPSGYGFNLHSDKSKPGQFIRSVDPDSPAEASGLRAQDRIVEVNGVCMEGKQHGDVVSAIRAGGDETKLLVVDRETDEFFKKCRVIPSQEHLNGPLPVPFTNGEIQKENSREALAEAALESPRPALVRSASSDTSEELNSQDSPPKQDSTAPSSTSSSDPILDFNISLAMAKERAHQKRSSKRAPQMDWSKKNELFSNL", "modifications": "left off: GST, end not stated, kept"}}, "key": {"GCC": {"system": "GCC", "assay_type": "biochemical, human"}, "[1]": {"system": "CFTR-dependent fluid secretion, mouse enteroids", "assay_type": "cell-based"}, "[2]": {"target": "Cyan- and yellow-tagged GCC catalytic domains (human)", "experiment": "FRET or BRET; sensitized FRET in HEK 293 cells between Cyan-GCCcat and Yellow-GCCcat, co-expressed with pCDNA3 empty vector, HA-NHERF3, HA-NHERF4, HA-NHERF4 PDZ1 or HA-NHERF4 delPDZ1; STc (1 uM) stimulation"}, "[3]": {"system": "CFTR-dependent fluid secretion, organoids", "conditions": "cited from earlier work"}, "[4]": {"system": "C-terminal 50 amino acids of GCC (GCCC50)", "assay_type": "binding"}, "[5]": {"system": "FLAG-GCC in HEK-293 cells", "assay_type": "cell-based"}, "MRP4C50 and GCCC50": {"system": "MRP4C50 and GCCC50", "assay_type": "binding", "conditions": "4 °C"}, "[6]": {"system": "C-terminal 50 amino acids of MRP4 (MRP4C50)", "assay_type": "binding"}, "[7]": {"system": "GCC catalytic domains (Cyan-GCCcat and Yellow-GCCcat)", "assay_type": "cell-based"}, "HA-GCC": {"target": "HA-GCC (human, UniProt P25092 24-1073)", "experiment": "cell-based or functional assay"}, "GST-NHERF2": {"target": "T1, GST-NHERF2 (human, UniProt Q15599 1-337)", "T1 construct": "also called E3KARP; GST-tagged NHERF2", "experiment": "far-Western, overlay or dot blot; dot blot: GST-NHERF1-4 and GST on nitrocellulose, GCCC50 overlaid, probed with in-house anti-GCC rabbit polyclonal antibody; saturating NHERF, > 1.2 pmoles", "conditions": "both partners purified"}, "GST-NHERF1": {"target": "T2, GST-NHERF1 (human, UniProt O14745 1-358)", "T2 construct": "also called EBP50; GST-tagged NHERF1", "T2 sequence (looked up)": "B3 chain", "experiment": "far-Western, overlay or dot blot; dot blot: GST-NHERF1-4 and GST on nitrocellulose, GCCC50 overlaid, probed with in-house anti-GCC rabbit polyclonal antibody; saturating NHERF, > 1.2 pmoles", "conditions": "both partners purified"}, "GST-NHERF3 [8]": {"target": "T3, GST-NHERF3 (human, UniProt Q5T2W1 1-519)", "T3 construct": "also called PDZK1; CAP70", "T3 sequence (looked up)": "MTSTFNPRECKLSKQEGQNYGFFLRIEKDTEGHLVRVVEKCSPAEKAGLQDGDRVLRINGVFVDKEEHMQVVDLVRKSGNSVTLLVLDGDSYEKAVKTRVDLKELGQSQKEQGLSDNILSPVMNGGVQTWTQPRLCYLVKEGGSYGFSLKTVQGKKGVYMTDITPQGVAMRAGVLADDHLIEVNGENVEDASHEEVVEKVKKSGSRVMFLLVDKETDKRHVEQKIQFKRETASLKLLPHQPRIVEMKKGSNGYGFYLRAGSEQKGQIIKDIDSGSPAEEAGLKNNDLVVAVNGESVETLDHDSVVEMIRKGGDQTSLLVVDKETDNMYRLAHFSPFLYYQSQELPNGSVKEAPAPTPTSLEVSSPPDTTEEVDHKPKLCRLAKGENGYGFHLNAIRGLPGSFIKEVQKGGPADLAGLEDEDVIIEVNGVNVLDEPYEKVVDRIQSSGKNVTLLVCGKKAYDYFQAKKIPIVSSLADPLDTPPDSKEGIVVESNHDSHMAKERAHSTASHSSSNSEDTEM", "experiment": "far-Western, overlay or dot blot; dot blot: GST-NHERF1-4 and GST on nitrocellulose, GCCC50 overlaid, probed with in-house anti-GCC rabbit polyclonal antibody; saturating NHERF, > 1.2 pmoles", "conditions": "both partners purified"}, "GST-NHERF3 [9]": {"target": "T3, GST-NHERF3", "experiment": "far-Western, overlay or dot blot; slot blot (macromolecular complex assay): GST-His-S-MRP4-C50 (0, 5 and 20 ug) and GST alone on nitrocellulose, 5 ug GST-NHERF3 overnight at 4 C, then 0.5 ug purified Flag-GCC-C50 at 4 C; detected with a GCC C-terminal specific antibody", "conditions": "both partners purified"}, "[10]": {"target": "T4, GCC catalytic domain (GCCcat, amino acids 824-954), purified (human, UniProt P25092 824-954)", "T4 construct": "also called GCC catalytic subunit", "T4 sequence (P25092 824-954)": "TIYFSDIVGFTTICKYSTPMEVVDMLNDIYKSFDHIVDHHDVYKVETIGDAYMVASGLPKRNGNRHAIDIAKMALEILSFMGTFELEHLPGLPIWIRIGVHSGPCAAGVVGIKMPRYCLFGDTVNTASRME", "experiment": "HRP-based binding assay on S-beads; 20 ug purified GCCcat immobilised on S-beads, 7.5 uM Biotin N4-195 overnight at 4 C, washed with PBS 0.2% Triton-X-100, streptavidin HRP with TMB, absorbance at 450 nm; control: S-beads without GCCcat", "conditions": "both partners purified"}}, "note": "“Also recorded” adds a separate entry of the source. Ends that are not written are not given here."}
{"molecule": "H-LERPRFCLL-OH [N4-110, peptide in NHERF4 PDZ1 domain homologous to GCC catalytic domain]", "values": [{"measurement": "GCC activity (cGMP) in the presence of single peptide", "setting": "GCC", "value": "did not affect GCC activity"}]}
{"molecule": "H-PRCDRVLHHFLRAALLQEAR-OH [N4-scrambled, scrambled peptide with same amino acid composition as N4-110 and N4-195 combined]", "values": [{"measurement": "STc-stimulated secretion with scrambled peptide, high concentrations", "setting": "[1]", "value": "some non-specific inhibition was observed at high concentrations"}, {"measurement": "STc-stimulated secretion with scrambled peptide, lower concentrations", "setting": "[1]", "value": "did not reduce STc-stimulated secretion at lower concentrations"}]}
{"molecule": "HA-NHERF4 PDZ1 (domain or fragment)", "values": [{"measurement": "FRET efficiency of GCCcat oligomerization with this protein co-expressed", "setting": "[2]", "value": 0.21}]}
{"molecule": "C=C[C@@]1(C)CC(=O)[C@]2(O)[C@@]3(C)[C@@H](O)CCC(C)(C)[C@@H]3[C@H](O)[C@H](OC(C)=O)[C@@]2(C)O1", "note": "[Forskolin]", "values": [{"measurement": "Fluid secretion response (organoid swelling)", "setting": "[3]", "value": "highly robust fluid secretion response"}]}
{"molecule": "H-RHAHDVARAQL-OH [N4-195]", "values": [{"measurement": "GCC activity (cGMP) in the presence of single peptide", "setting": "GCC", "value": "did not affect GCC activity"}]}
{"molecule": "Cyan- and yellow-tagged GCC catalytic domains (domain or fragment)", "values": [{"measurement": "FRET efficiency of GCCcat oligomerization (control, empty vector)", "setting": "[2]", "value": 0.54}]}
{"molecule": "NHERF3: PDZ adaptor protein; GST-fusion protein or HA-tagged construct", "values": [{"measurement": "Binding order of NHERFs to GCC", "setting": "[4]", "value": "highest binding affinity for GCC among the NHERF proteins; also recorded: NHERF3> NHERF1> NHERF2> NHERF4"}, {"measurement": "Binding to GCC with increasing concentrations of STc", "setting": "[5]", "value": "not affected"}, {"measurement": "Macromolecular complex formation of GCC and MRP4 via NHERF3", "setting": "MRP4C50 and GCCC50", "value": "GCC could exist in a macromolecular complex with MRP4 via NHERF3"}, {"measurement": "Binding order of NHERFs to MRP4", "setting": "[6]", "value": "NHERF3> NHERF2≥ NHERF1> NHERF4"}, {"measurement": "FRET efficiency of GCCcat oligomerization", "setting": "[7]", "value": "0.51 ± 0.08"}]}
{"molecule": "B1", "values": [{"measurement": "inhibition of the cGMP formation of HA-GCC immunoprecipitated on HA beads by 200 nM purified GST-NHERF4, relative to the GST-only control", "setting": "HA-GCC", "value": 38, "unit": "%"}, {"measurement": "FRET efficiency of GCCcat oligomerization with this protein co-expressed", "setting": "[2]", "value": 0.17}]}
{"molecule": "AEFSDMIANSLQKRQAAGIRSQKPRRVASYKKGTLEYLQLNTTDKESTYF (domain or fragment, human, UniProt P25092 1024-1073, looked up)", "note": "[C-terminal 50 amino acids of GCC (GCCC50)]", "values": [{"measurement": "binding result", "setting": "GST-NHERF2", "value": "binds"}, {"measurement": "binding result", "setting": "GST-NHERF1", "value": "binds"}, {"measurement": "binding result", "setting": "GST-NHERF3 [8]", "value": "binds"}]}
{"molecule": "AEFSDMIANSLQKRQAAGIRSQKPRRVASYKKGTLEYLQLNTTDKESTYF (domain or fragment, human, UniProt P25092 1024-1073, looked up, also called GCCC50)", "note": "[Flag-GCC-C-terminal 50 aa]", "values": [{"measurement": "binding result", "setting": "GST-NHERF3 [9]", "value": "binds"}]}
{"molecule": "RHAHDVARAQL (not fully specified (N-terminus); also: biotin label, position not given here, also called N4-Biotin)", "note": "[Biotin-N4-195 peptide]", "values": [{"measurement": "binding result", "setting": "[10]", "value": "binds"}]}
{"molecule": "B2", "values": [{"measurement": "Binding order of NHERFs to GCC", "setting": "[4]", "value": "NHERF3> NHERF1> NHERF2> NHERF4"}, {"measurement": "Binding order of NHERFs to MRP4", "setting": "[6]", "value": "NHERF3> NHERF2≥ NHERF1> NHERF4"}]}
{"molecule": "B3", "values": [{"measurement": "Binding order of NHERFs to GCC", "setting": "[4]", "value": "NHERF3> NHERF1> NHERF2> NHERF4"}, {"measurement": "Binding order of NHERFs to MRP4", "setting": "[6]", "value": "NHERF3> NHERF2≥ NHERF1> NHERF4"}]}
